Stoichiometry N data for one substance are collected here from paper doi:10.1101/112029.

The target of this test is untagged murine saposin A (SapA), wild type (murine). Nature of the test: crystal structure.

The term stoichiometry N denotes a count of units in the complex or per binding partner. In turn, “untagged murine saposin A (SapA), wild type (natural protein)” returned a stoichiometry N of 2.
